Assay [1] concerns the target rat brain Na channel (voltage-sensitive sodium channels in rat brain membranes) (rat). As to the kind of experiment: binding of 125I-δ-conotoxin TxVIA to rat brain membranes, no competitor.
Assay [2] concerns the target rat brain Ca^2+ channels (ω-conotoxin GVIA binding site in rat brain membranes) (rat). As to the kind of experiment: binding of 125I-ω-conotoxin GVIA to rat brain membranes, no competitor.
Assay [3] shares this target. The experiment in a line: competition on rat brain membranes; label (competitor) 125I-ω-conotoxin GVIA.
For assay [4], the target named is rat brain Na channel (voltage-sensitive sodium channels in rat brain membranes) (rat). As to the kind of experiment: competition on rat brain membranes; label (competitor) 125I-δ-conotoxin TxVIA.
In assay [5] the target is ω-conotoxin GVIA binding sites on brain membrane preparations from frogs, chicks and rats.

Where “and” joins values, the source holds several entries; their conditions need not be identical. Identical values can stand only once.

On to ^125 I!δ-conotoxin TxVIA (peptide), for which the cpm bound in assay [1] was found to be 4890 cpm.

With “^125 I-labeled ω-conotoxin GVIA (from UniProt P01522) (peptide)”, the cpm bound in assay [2] stood at 4400 cpm.

With δ-conotoxin PVIA (amidated) (peptide), the cpm bound in assay [3] amounted to 4930 cpm; in assay [4] it was 889 cpm.

As for “δ-conotoxin PVIA (nonamidated) (peptide)”, the cpm bound in assay [3] was 4390 cpm; in assay [4], 848 cpm.

As for δ-conotoxin TxVIA (peptide), the results for the cpm bound in assay [3] and in assay [4] were 4720 cpm and 925 cpm, respectively.

Regarding “ω-conotoxin GVIA (from UniProt P01522) (peptide)”, the cpm bound in assay [3] worked out at 954 cpm; in assay [4], 4710 cpm. Besides, the percent of ^125 I-GVIA displaced in assay [5] was 90% and 98%.

These data come from US5739276.
